Substitutions are numbered along the chain they refer to.
T1: hiR2-FL-N584A-T7 (human, UniProt Q6PJF5 1-856)
T1 sequence: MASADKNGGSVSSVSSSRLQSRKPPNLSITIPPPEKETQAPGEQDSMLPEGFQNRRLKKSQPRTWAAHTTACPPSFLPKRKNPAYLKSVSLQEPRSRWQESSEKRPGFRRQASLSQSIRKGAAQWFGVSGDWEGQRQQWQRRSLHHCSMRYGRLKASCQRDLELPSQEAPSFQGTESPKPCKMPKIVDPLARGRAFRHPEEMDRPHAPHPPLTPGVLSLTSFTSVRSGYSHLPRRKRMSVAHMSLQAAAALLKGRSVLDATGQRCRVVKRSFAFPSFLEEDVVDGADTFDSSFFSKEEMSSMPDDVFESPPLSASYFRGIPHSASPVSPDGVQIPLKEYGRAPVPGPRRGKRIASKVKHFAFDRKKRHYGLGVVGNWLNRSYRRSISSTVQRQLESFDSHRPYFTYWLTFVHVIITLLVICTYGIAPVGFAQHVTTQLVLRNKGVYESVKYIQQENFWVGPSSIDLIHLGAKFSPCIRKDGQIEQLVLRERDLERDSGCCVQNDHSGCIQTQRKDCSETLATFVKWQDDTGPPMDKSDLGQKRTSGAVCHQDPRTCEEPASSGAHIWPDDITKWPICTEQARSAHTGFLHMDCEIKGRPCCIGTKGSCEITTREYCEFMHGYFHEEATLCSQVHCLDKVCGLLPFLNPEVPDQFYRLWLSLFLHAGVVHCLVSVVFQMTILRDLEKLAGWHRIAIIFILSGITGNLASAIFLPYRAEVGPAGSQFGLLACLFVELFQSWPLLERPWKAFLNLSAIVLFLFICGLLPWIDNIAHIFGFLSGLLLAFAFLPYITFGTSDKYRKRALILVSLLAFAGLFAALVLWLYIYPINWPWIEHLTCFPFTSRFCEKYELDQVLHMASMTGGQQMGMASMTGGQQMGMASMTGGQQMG

T2: hiR2-FL-Q510A-T7 (human, UniProt Q6PJF5 1-856)
T2 construct: reduced surface expression reported
T2 sequence: T1 sequence with Q510A, A584N

B1: antibody 3 (antibody, V domains shown)
VH: QVTLKESGPGILQPSQTLSLTCSFSGFSLTTFAMGIGWVRQPSGKGLEWLAHIWWDGEKYNNPVLKSRLTISKDTSKNQVFLRIANVDTPDTATYYCARISSIYYIIDNWGQGTSVTVSS
VL: DIVLTQSPATLSVTPGHSVSLSCRASQSISNNLHWYQKKSHESPRLLIKYVSQSISGIPSRFSGSGSGTDFTLSINSVETEDFGMYFCQQSYNWPLTFGAGTKLELK
notes: mouse IgG, kappa light chain; also called clone #3; purified antibody 3
B2: antibody 50 (antibody, V domains shown)
VH: QVQLQQSGAELVRPGASVKVSCKASGYAFSNYLIEWVKQRPGQGLEWIGVINPGSGFTKYNEKFKGKATLTADKSSSTAYMQLSSLTSEDSAVYFCARGLYRAMDYWGQGTSVTVSS
VL: DIQMTQSPASQSASLGESVTITCLASQTIGTWLAWYQQKPGKSPQLLIYAAASLADGVPSRFSGGGSGTKFSFKISSLQAEDFVNYYCQQIYSTPYTFGGGTKLEIK
notes: mouse IgG, kappa light chain; also called clone #50; purified antibody 50

How the values were obtained:
[1] = target: T1, hiR2-FL-N584A-T7; experiment: FACS on MEF-DKO cells expressing the variant, 3 µg/ml antibody
Summary of the method: (§1)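 Pelleted cells are resuspended in antibody at 3 μg/ml and kept on ice 1 hour, washed, then incubated with PE goat anti-mouse IgG F(ab′)2 diluted 1:100 on ice for 1 hour protected from light, washed again and analysed by flow cytometry.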

[2] = target: T2, hiR2-FL-Q510A-T7; experiment: as above
Summary of the method: as §1

| Binder | loss of binding vs wild type [1] | loss of binding vs wild type [2] |
| --- | --- | --- |
| B1 | ≥ 30% | – |
| B2 | – | ≥ 30% |

Source: US20240287172A1 (SCIRHOM, published 2024)
